# According to patent US20050164925A1 (JOSEPH ANTHONY JAKUBOWSKI AND THURMAN DWIGHT MC KINNEY, published 2005):
# Where “and” joins values, the source holds several entries; their conditions need not be identical. Equal values may be shown once. Where no end group is shown, it is not given here.
# T1: human GLP-1 receptor (human), P43220
# T1 chain: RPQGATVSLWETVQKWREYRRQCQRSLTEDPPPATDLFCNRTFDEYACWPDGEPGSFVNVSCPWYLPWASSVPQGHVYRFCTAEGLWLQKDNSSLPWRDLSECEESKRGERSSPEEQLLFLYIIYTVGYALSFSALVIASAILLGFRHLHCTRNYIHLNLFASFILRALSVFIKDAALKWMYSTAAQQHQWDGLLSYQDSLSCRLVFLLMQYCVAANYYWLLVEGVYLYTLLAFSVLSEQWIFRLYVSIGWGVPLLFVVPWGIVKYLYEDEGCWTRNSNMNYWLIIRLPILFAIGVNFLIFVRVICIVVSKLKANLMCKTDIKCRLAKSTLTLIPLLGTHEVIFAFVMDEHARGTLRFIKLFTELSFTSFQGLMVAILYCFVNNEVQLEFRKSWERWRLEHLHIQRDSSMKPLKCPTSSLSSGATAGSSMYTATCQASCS
# B1: Val^8-Tyr^12-GLP-1(7-36)NH2 (peptide)
# peptide: HVEGTYTSDVSSYLEGQAAKEFIAWLVKGX
# modifications: C-terminal amide (Xaa at position 37 is -NH2)
# B2: Val^8-Glu^22-His^37-GLP-1(7-37)OH (peptide)
# peptide: HVEGTFTSDVSSYLEEQAAKEFIAWLVKGRH-OH
# B3: Val^8-Lys^18-Glu^22-GLP-1(7-37)OH (peptide)
# peptide: HVEGTFTSDVSKYLEEQAAKEFIAWLVKGRG-OH
# B4: Val^8-Phe^20-Glu^22-GLP-1(7-37)OH (peptide)
# peptide: HVEGTFTSDVSSYFEEQAAKEFIAWLVKGRG-OH
# B5: Val^8-Glu^22-Ala^27-GLP-1(7-37)OH (peptide)
# peptide: HVEGTFTSDVSSYLEEQAAKAFIAWLVKGRG-OH
# B6: Val^8-Glu^22-Ile^33-GLP-1(7-37)OH (peptide)
# peptide: HVEGTFTSDVSSYLEEQAAKEFIAWLIKGRG-OH
# B7: Val^8-Tyr^16-Glu^22-GLP-1(7-37)OH (peptide)
# peptide: HVEGTFTSDYSSYLEEQAAKEFIAWLVKGRG-OH
# B8: Val^8-Tyr^18-Glu^22-GLP-1(7-37)OH (peptide)
# peptide: HVEGTFTSDVSYYLEEQAAKEFIAWLVKGRG-OH
# B9: Val^8-Glu^22-Val^25-GLP-1(7-37)OH (peptide)
# peptide: HVEGTFTSDVSSYLEEQAVKEFIAWLVKGRG-OH
# B10: Val^8-Tyr^16-Trp^19-Glu^22-GLP-1(7-37)OH (peptide)
# peptide: HVEGTFTSDYSSWLEEQAAKEFIAWLVKGRG-OH
# B11: Val^8-Trp^16-Glu^22-GLP-1(7-37)OH (peptide)
# peptide: HVEGTFTSDWSSYLEEQAAKEFIAWLVKGRG-OH
# B12: Val^8-Phe^19-Glu^22-GLP-1(7-37)OH (peptide)
# peptide: HVEGTFTSDVSSFLEEQAAKEFIAWLVKGRG-OH
# B13: Val^8-Ile^16-Glu^22-GLP-1(7-37)OH (peptide)
# peptide: HVEGTFTSDISSYLEEQAAKEFIAWLVKGRG-OH
# B14: Val^8-Leu^16-Glu^22-GLP-1(7-37)OH (peptide)
# peptide: HVEGTFTSDLSSYLEEQAAKEFIAWLVKGRG-OH
# B15: Val^8-Leu^16-GLP-1(7-37)OH (peptide)
# peptide: HVEGTFTSDLSSYLEGQAAKEFIAWLVKGRG-OH
# B16: Val^8-Trp^18-Glu^22-GLP-1(7-37)OH (peptide)
# peptide: HVEGTFTSDVSWYLEEQAAKEFIAWLVKGRG-OH
# B17: Val^8-Tyr^12-Tyr^16-GLP-1(7-37)OH (peptide)
# peptide: HVEGTYTSDYSSYLEGQAAKEFIAWLVKGRG-OH
# B18: Val^8-Tyr^12-Glu^22-GLP-1(7-37)OH (peptide)
# peptide: HVEGTYTSDVSSYLEEQAAKEFIAWLVKGRG-OH
# B19: Val^8-Glu^22-Val^25-Ile^33-GLP-1(7-37)OH (peptide)
# peptide: HVEGTFTSDVSSYLEEQAVKEFIAWLIKGRG-OH
# B20: Val^8-Ile^18-Glu^22-GLP-1(7-37)OH (peptide)
# peptide: HVEGTFTSDVSIYLEEQAAKEFIAWLVKGRG-OH
# B21: Val^8-Glu^22-Leu^25-GLP-1(7-37)OH (peptide)
# peptide: HVEGTFTSDVSSYLEEQALKEFIAWLVKGRG-OH
# B22: Val^8-Phe^16-Glu^22-GLP-1(7-37)OH (peptide)
# peptide: HVEGTFTSDFSSYLEEQAAKEFIAWLVKGRG-OH
# B23: Val^8-Tyr^16-Phe^19-GLP-1(7-37)OH (peptide)
# peptide: HVEGTFTSDYSSFLEGQAAKEFIAWLVKGRG-OH
# B24: Val^8-Leu^25-GLP-1(7-37)OH (peptide)
# peptide: HVEGTFTSDVSSYLEGQALKEFIAWLVKGRG-OH
# B25: Val^8-Glu^30-GLP-1(7-37)OH (peptide)
# peptide: HVEGTFTSDVSSYLEGQAAKEFIEWLVKGRG-OH
# B26: Val^8-Trp^16-Glu^22-Ile^33-GLP-1(7-37)OH (peptide)
# peptide: HVEGTFTSDWSSYLEEQAAKEFIAWLIKGRG-OH
# B27: Val^8-Tyr^16-GLP-1(7-37)OH (peptide)
# peptide: HVEGTFTSDYSSYLEGQAAKEFIAWLVKGRG-OH
# B28: Val^8-Trp^12-Glu^22-GLP-1(7-37)OH (peptide)
# peptide: HVEGTWTSDVSSYLEEQAAKEFIAWLVKGRG-OH
# B29: Val^8-Trp^19-Glu^22-GLP-1(7-37)OH (peptide)
# peptide: HVEGTFTSDVSSWLEEQAAKEFIAWLVKGRG-OH
# B30: Val^8-Trp^16-Glu^22-Val^25-Ile^33-GLP-1(7-37)OH (peptide)
# peptide: HVEGTFTSDWSSYLEEQAVKEFIAWLIKGRG-OH
# B31: Val^8-Trp^16-Glu^22-Val^25-GLP-1(7-37)OH (peptide)
# peptide: HVEGTFTSDWSSYLEEQAVKEFIAWLVKGRG-OH
# B32: Val^8-Asp^9-Ile^11-Tyr^16-Glu^22-GLP-1(7-37)OH (peptide)
# peptide: HVDGIFTSDYSSYLEEQAAKEFIAWLVKGRG-OH
# Molecular target: human GLP-1 receptor (human, UniProt P43220 24-463)
# Assay: cell-based or functional assay
# Conditions: not given
row,Molecule,EC50 Relative to Val^8-GLP-1(7-37)OH
1,B1,1.1 relative to Val^8-GLP-1(7-37)OH

# Molecular target: T2, human GLP-1 receptor (Homo sapiens, UniProt P43220)
# T2 construct: expressed in transfected cells; host or cells: HEK-293 Aurora CRE-BLAM cells
# Assay: In vitro potency assay (CRE-BLAM reporter, GLP-1 receptor signaling)
# Type: cell-based
# Conditions: in vitro potency relative to Val^8-GLP-1(7-37)OH
# Description: The extent of the induction of cAMP levels can then be measured using a cAMP response element which drives the expression of a reporter gene such as luciferase or beta lactamase.
# These HEK-293 cells have stably integrated a DNA vector having a cAMP response element (CRE) driving expression of the β-lactamase (BLAM) gene.
# The day after seeding, the medium is replaced with plasma free medium.
row,Molecule,potency higher than Val^8-GLP-1(7-37)OH
1,Exendin-4,approximately 5 fold
2,Val^8-Glu^22-GLP-1(7-37)OH,approximately 3 fold

# Molecular target: T1, human GLP-1 receptor (human), P43220
# Assay: cell-based or functional assay
# Conditions: not given
row,Molecule,EC50 Relative to Val^8-GLP-1(7-37)OH (relative to Val^8-GLP-1(7-37)OH)
1,B2,4.7
2,B3,2.5
3,B4,2.7
4,B5,2.2
5,B6,4.7 and 3.8 and 3.4
6,B7,3.6 and 3.8
7,B8,5.1 and 5.9
8,B9,4.7 and 2.9
9,B10,3.5
10,B11,4.9 and 4.6
11,B12,1.5
12,B13,3.3
13,B14,4.3
14,B15,1.1
15,B16,3.2 and 6.6
16,B17,1.5

row,Molecule,EC50 Relative to Val^8-GLP-1(7-37)OH (relative to Val^8-GLP-1(7-37)OH)
1,B18,2.7
2,B19,4.9 and 5.8 and 6.7
3,B20,4
4,B21,2.8
5,B22,2.3
6,B23,2.8
7,B24,0.5
8,B25,0.7
9,B26,4.1
10,B27,2.5
11,B28,1.7
12,B29,3.2
13,B30,5
14,B31,4.4
15,B32,4.3
